Target: urokinase-type plasminogen activator receptor (human) (UniProt Q03405)
Assay: cell-based or functional assay

Chain of urokinase-type plasminogen activator receptor (human) (Q03405 23-305): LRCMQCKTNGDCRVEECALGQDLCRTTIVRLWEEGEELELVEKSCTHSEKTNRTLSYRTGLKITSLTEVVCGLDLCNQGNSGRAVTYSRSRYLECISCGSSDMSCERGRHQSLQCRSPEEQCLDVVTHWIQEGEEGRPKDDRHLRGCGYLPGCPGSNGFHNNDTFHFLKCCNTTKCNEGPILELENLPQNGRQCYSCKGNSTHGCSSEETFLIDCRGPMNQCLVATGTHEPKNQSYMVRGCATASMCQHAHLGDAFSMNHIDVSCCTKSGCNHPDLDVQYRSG

DTAT (from UniProt P00588 33-422; P00749 21-155)
IC50, 3H-thymidine incorporation inhibition, HUV-EC, DTAT: 26.8 pM

From patent publication US20080166375A1
